Measurements from patent publication US20220211858A1, “TUBULAR SUPRAMOLECULAR POLYMERS” (priority 2019, published 2022).

What was measured:
[1] = Maximum tolerated dose (MTD) dose escalation study; design: species or system athymic nude mice; settings: female, athymic nude, mouse, in vivo, intravenous, three doses, four days a dose; ½ of single-injection MTD; read-out: MTD of multiple injections
[2] = Drug release from TT 1 nanotubes with or without GSH; type: physicochemical; settings: 200 μM
Protocol: The release of free CPT from TT 1 nanotubes was evaluated in the presence or absence of GSH. Stock solutions of 400 μM of TT 1 in deionized water were prepared and diluted to 200 μM with 20 mM PBS buffer with or without GSH (20 mM). Three replicate experiments were prepared together for both conditions. The solutions were incubated at 37° C. and samples were collected at 0 min, 10 min, 20 min, 30 min, 1 h, 2 h, 4 h, 6 h, 8 h, 12 h and 24 h. For each collected sample, the reductive release was halted by acidification of the solution through the addition of 0.2 μL of 2M HCl. Samples were then frozen with liquid nitrogen and stored at −30° C. until analysis. The amount of released CPT was monitored by RP-HPLC using the following conditions: Varian Pursuit XRs C18 (5 μm, 150×4.6 mm); 362 nm detection wavelength; 1 ml/min flow rate; the gradient began at 90% of mobile phase A (0.1% aqueous TFA) and 10% of mobile phase B (acetonitrile containing 0.1% TFA) increasing to 90% mobile phase B by 15 min and held for another 1 min before decreasing to the initial solvent composition at 20 minutes. Selected time points were characterized and data were plotted as a percentage of the total expected CPT concentration.

[3] = TEM / cryo-TEM imaging of self-assembled nanostructures (dimensions); type: physicochemical
Protocol: About 200 μM stock solutions of corresponding TTs in water were prepared by dissolution of the lyophilized powders. After aging overnight, TEM samples were prepared by depositing 7 μL of the appropriate solution onto a carbon-coated copper grid (Electron Microscopy Services, Hatfield, Pa., USA), wicking away the excess solution with a small piece of filter paper. Next, 7 μL of a 2 wt % uranyl acetate aqueous solution was deposited on the surface for 30 seconds, wicking away the excess solution with filter paper. The grids were then air-dried overnight at room temperature prior to imaging. Bright-field TEM imaging was performed using an FEI Tecnai 12 TWIN Transmission Electron Microscope operated at an acceleration voltage of 100 kV. All TEM images were acquired by a SIS Megaview III wide-angle CCD camera or 16 bit 2K×2K FEI Eagle bottom mount camera.
Cryo-TEM imaging was performed using higher sample concentrations of 800 μM (compared with 200 μM for conventional TEM imaging). Extended imaging times can result in damage to the vitreous ice film caused by the electron beam and so higher concentrations can allow a more rapid visualization that reduces this likelihood. About 6 μL of the appropriate solution was dropped onto a lacey carbon-film-supported TEM copper grid (Electron Microscopy Services, Hatfield, Pa., USA). All the TEM grids used for cryo-TEM imaging were pretreated with plasma air to render the lacey carbon film hydrophilic. A thin film of the sample solution was produced using a Vitrobot with a controlled humidity chamber (FEI). After loading of the sample solution, the lacey carbon grid was blotted using preset parameters and plunged instantly into a liquid ethane reservoir precooled by liquid nitrogen. The vitrified samples were then transferred to a cryo-holder and cryo-transfer stage that was cooled by liquid nitrogen. To prevent sublimation of vitreous water, the cryo-holder temperature was maintained below −170° C. during the imaging process. All images were recorded by a Tecnai 12 microscope with a cryo-holder, and the images were acquired by a 16 bit 2K×2K FEI Eagle bottom mount camera.
Self-Assembly of SAPDs from TT1. To study the self-assembly behavior of the SAPDs, we directly dissolved the lyophilized powders in deionized water at a concentration of 2 mM and neutral pH.

[4] = Encapsulation of hydrophobic dyes and paclitaxel in TT 1 nanotubes; type: physicochemical
Protocol: A 300 μM in water stock solution of TT 1 prodrug was prepared and aged overnight to form nanotubes. Hydrophobic dyes, such as Coumarin 6 (C6), Nile Red, Rose Bengal lactone (Rose), and IR 780 iodide (IR 780), were dissolved in acetonitrile at a concentration of 600 μM (FIG. 18). To perform the dye encapsulation experiments, 400 μL of the pre-formed nanotube solution and 200 μL of the corresponding dye solution in acetonitrile were mixed together to make a final solution of 600 μL (H2O/MeCN=2:1, v/v) in which the concentration of both prodrug and dye was 200 μM (prodrug/dye=1:1, mol/mol). The resulting mixed nanotube and dye solution was aged overnight to allow the penetration of dye molecules into the nanotube structures and then directly lyophilized to fully remove all the solvents. Next, the lyophilized powder was reconstituted to a final prodrug concentration of 200 μM by the addition of 600 μL of water and vortexing for 60 s. The solutions were aged for at least 6 h before being centrifuged (6000 rpm, 5 min) to remove any precipitated free dye. The supernatant was collected for further study. The dye loading capacity was calculated from the percentage of dye in the supernatant to the sum of encapsulated dye and added prodrugs. To get a higher resolution of dye-doped TT 1 solution, the solutions imaged in FIG. 4A were concentrated to a concentration of 800 μM.
In addition to functional dye molecules, the hydrophobic drug paclitaxel (PTX) was also used as a model compound to dope the TT 1 nanotubes, following the procedure described in the paragraph describing CD measurements of TT solutions above. After encapsulation, analytical HPLC was used to analyze the components of drug-doped nanotubes, monitoring the absorption at 220 nm. […] The concentrations of both nanotube and PTX were determined by comparing the area under the curve of each component with its standard calibration curve, yielding an encapsulation efficiency around 11%. The CD spectrum of PTX-doped nanotube was also recorded, showing a slight decrease in intensity compared with a pure nanotube solution at the same concentration (FIG. 17B).

CC[C@]1(OC(=O)OCCSSC[C@@H](NC(C)=O)C(=O)N[C@@H](CCCCNC(=O)[C@@H](CSSCCOC(=O)O[C@]2(CC)C(=O)OCc3c2cc2n(c3=O)Cc3cc4ccccc4nc3-2)NC(C)=O)C(=O)N[C@@H](CCCCNC(=O)CCOCCOCCOCCOCCOC)C(=O)N[C@@H](CCCCNC(=O)CCOCCOCCOCCOCCOC)C(N)=O)C(=O)OCc2c1cc1n(c2=O)Cc2cc3ccccc3nc2-1 [TT 1]
MTD [1]: 12 mg/kg
conjugated CPT released ([2]; 10 mM GSH, 37° C., by 6 h): ~100%
conjugates degraded (hydrolysis) ([2]; without GSH, 24 h): less than 10%
wall thickness measured from toroids ([3]; TT 1 nanotubes, TEM): 3.0±0.5 nm
hollow interior diameter ([3]; TT 1 nanotubes, toroids, TEM): 2.5±0.6 nm
nanotube diameter after loading ([3]; loaded with Coumarin 6, TEM): 9.8±1.4 nm
nanotube diameter after loading ([3]; loaded with IR 780, TEM): 10.2±0.9 nm
nanotube diameter after loading ([3]; loaded with Nile Red, TEM): 9.6±1.2 nm
nanotube diameter after loading ([3]; loaded with Rose Bengal lactone, TEM): 10.7±1.4 nm
diameter of PTX-doped nanotubes ([3]; paclitaxel-doped, 200 μM, TEM): 10.6±0.9 nm
Diameters measured by conventional TEM ([3]; self-assembled nanotubes in water, 200 μM, n>40): 8.8 ± 0.8 nm
dye loading content ([4]; Coumarin 6 (C6) in TT 1 assemblies): 4.5%
dye loading content ([4]; IR-780 in TT 1 assemblies): 10.3%
dye loading content ([4]; Nile Red in TT 1 assemblies): 4.4%
dye loading content ([4]; Rose Bengal lactone in TT 1 assemblies): 14.8%
